Reference: paper doi:10.1101/2024.11.12.623303 (bioRxiv, 2024)

Target: T1, recombinant CD45RO-Fc protein (Catalog # 10642-CD, R&D systems) (UniProt P08575-4 26-416)
T1 sequence (looked up): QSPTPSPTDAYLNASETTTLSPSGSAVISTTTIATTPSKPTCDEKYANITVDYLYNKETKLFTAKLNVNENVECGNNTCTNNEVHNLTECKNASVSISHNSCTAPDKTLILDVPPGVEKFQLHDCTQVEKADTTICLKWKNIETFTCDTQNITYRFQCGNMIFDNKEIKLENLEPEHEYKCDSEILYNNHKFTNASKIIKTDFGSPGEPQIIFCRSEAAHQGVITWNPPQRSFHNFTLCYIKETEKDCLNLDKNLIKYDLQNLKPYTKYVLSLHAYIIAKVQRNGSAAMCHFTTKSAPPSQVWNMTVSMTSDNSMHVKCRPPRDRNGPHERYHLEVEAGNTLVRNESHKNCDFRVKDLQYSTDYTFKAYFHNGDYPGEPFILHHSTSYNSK
Test: MST

Kd: 0.0635 µM
B1: BTN2A2-His tag protein (without Fc tag) (domain or fragment, human, UniProt Q8WVV5 33-237, looked up)
chain: QFTVVGPANPILAMVGENTTLRCHLSPEKNAEDMEVRWFRSQFSPAVFVYKGGRERTEEQMEEYRGRITFVSKDINRGSVALVIHNVTAQENGIYRCYFQEGRSYDEAILRLVVAGLGSKPLIEIKAQEDGSIWLECISGGWYPEPLTVWRDPYGEVVPALKEVSIADADGLFMVTTAVIIRDKYVRNVSCSVNNTLLGQEKETV
modifications: fluorescently labeled by covalent labeling (Monolith protein labeling kit RED-NHS 2nd generation, amine reactive)
